The target in assay [1] is V3 fHbp P106A (Neisseria meningitidis). Kind of assay: SPR. A general note: SPR reads the build-up and loss of mass on a sensor chip optically.
The target in assay [2] is V2 fHbp Thr304Glu (Neisseria meningitidis). Kind of assay: SPR.
For assay [3], the target named is V2 fHbp with Ala at position 157 (Neisseria meningitidis) (UniProt E6MV22). Briefly: SPR.
In assay [4] the target is Factor H binding protein, variant group 2 (V2.p21), wild type (Neisseria meningitidis) (UniProt E6MV22). Briefly: SPR.
For assay [5], the target named is Factor H binding protein, variant group 1 (V1.p1), wild type (Neisseria meningitidis) (UniProt Q9JXV4). Kind of assay: SPR.
The target in assay [6] is V1 fHbp I311A (Neisseria meningitidis). Kind of assay: SPR.
Assay [7] deals with V1 fHbp with Val272 replaced by Ala (Neisseria meningitidis). Kind of assay: SPR.
Assay [8] concerns the target V1 fHbp E283A (Neisseria meningitidis). Kind of assay: SPR.
Assay [9] addresses V2 fHbp Glu283Ala (Neisseria meningitidis). Briefly: SPR.
In assay [10] the target is V3 fHbp with Val272 replaced by Ala (Neisseria meningitidis). Briefly: SPR.
For assay [11], the target named is V2 fHbp Thr304Ala (Neisseria meningitidis). Kind of assay: SPR.
Assay [12] concerns the target Factor H binding protein, variant group 3 (V3.p28), wild type (Neisseria meningitidis) (UniProt E6MV22). Kind of assay: SPR.
In assay [13] the target is V2 fHbp with Glu313 replaced by Ala (Neisseria meningitidis). Kind of assay: SPR.
Assay [14] addresses V2 fHbp with Leu195 replaced by Ala (Neisseria meningitidis). Kind of assay: SPR.
In assay [15] the target is V2 fHbp with Val272 replaced by Ala (Neisseria meningitidis). Kind of assay: SPR.
For assay [16], the target named is Factor H binding protein, variant group 2 (V2.p21), wild type (UniProt E6MV22). Briefly: SPR.
Assay [17] concerns the target Factor H binding protein, variant group 3 (V3.p28), wild type (UniProt E6MV22). Briefly: SPR.
Assay [18] concerns the target T1, Factor H binding protein, variant group 1 (V1.p1), wild type (Neisseria meningitidis, UniProt Q9JXV4 20-274).
T1 construct: also called V1 fHbp; fHbp
T1 sequence: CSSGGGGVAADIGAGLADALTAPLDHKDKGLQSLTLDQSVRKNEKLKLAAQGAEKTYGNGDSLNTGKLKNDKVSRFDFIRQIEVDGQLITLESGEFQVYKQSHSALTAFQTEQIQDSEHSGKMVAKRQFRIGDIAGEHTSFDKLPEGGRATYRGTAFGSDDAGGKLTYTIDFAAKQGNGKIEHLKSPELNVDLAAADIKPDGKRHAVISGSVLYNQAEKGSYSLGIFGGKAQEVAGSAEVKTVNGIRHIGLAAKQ
Briefly: SPR. The following applies: both partners purified.

Assay [19] concerns the target T1, Factor H binding protein, variant group …. Briefly: not stated; dose response curve of mfH67 binding V1 fHbp (Fig. S2). The settings on record: both partners purified.

One may read the Kd as the constant that tells how readily two partners part at equilibrium. “human factor H CCP domains 6 and 7 (domain or fragment)” yielded a fold increase in strength of binding relative to wild type in assay [1] of 100 fold. Besides, the fold increase in KD relative to wild type was 200 fold in assay [2], 7 fold in assay [8], 40 fold in assay [9] and 10 fold in [11]. Also, in assay [3], the fold increase in binding relative to wild type was found to be 5 fold. Moreover, the Kd in assay [4] was found to be 0.0019 µM; in [5] it was 0.0022 µM; in assay [6], 1.3 µM; in assay [12], 0.0028 µM. Also, the fold reduction in binding relative to wild type in assay [7], in assay [10], in [13], in [14] and in [15] was greater than 5 fold throughout.

The molecule “human fH67 with His337 and Arg341 replaced by the murine residues (domain or fragment)” returned a Kd in assay [5] of 7 µM.

Consider “human factor H CCP domains 6 and 7 K351R; Y352K”, for which the Kd in assay [16] worked out at 44 µM; in assay [17] it was 33 µM.

B1: human fH67 with Lys351 and Tyr352 replaced by the murine residues (domain or fragment)
chain: TLKPCDYPDIKHGGLYHENMRRPYFPVAVGRKYSYYCDEHFETPSGSYWDHIHCTQDGWSPAVPCLRKCYFPYLENGYNQNHGRKFVQGKSIDVACHPGYALPKAQTTVTCMENGWSPTPRCI
In [18], B1 gave a Kd of 2.8 ± 0.5 µM.

B2: murine factor H CCP domains 6 and 7 (domain or fragment)
chain: LKPCEFPQFKYGRLYYEESLRPNFPVSIGNKYSYKCDNGFSPPSGYSWDYLRCTAQGWEPEVPCVRKCVFHYVENGDSAYWEKVYVQGQSLKVQCYNGYSLQNGQDTMTCTENGWSPPPKCI
notes: also called mfH67; mfH; source: cloned into pET-15b; expressed and purified using the method described previously [40]
As for B2, the “fold higher KD than hfH” value in assay [19] was greater than 10000 fold.
